Reference: FireProtDB (doi:10.1006/jmbi.2001.5050)

Settings: Bacillus caldolyticus, pH 7, CD, sodium cacodylate-HCl 100 mM, reversible: yes, whole UniProt chain shown

B1: Cold shock protein CspB wild type, P41016 (protein)
chain: MQRGKVKWFNNEKGYGFIEVEGGSDVFVHFTAIQGEGFKTLEEGQEVSFEIVQGNRGPQAANVVKL
**Q.** For B1, which denaturant m value (25 °C, GdnHCl) is on record?
**A.** The denaturant m value was 1.77 kcal/mol/M.

**Q.** What about the “denaturant midpoint (higher = more stable)” value (25 °C, GdnHCl) of the same protein?
**A.** The value was 2.68 M.

**Q.** What about the unfolding free energy (25 °C, GdnHCl) of the same protein?
**A.** The unfolding free energy was 1.2 kcal/mol.

**Q.** And the unfolding free energy (70 °C, Thermal, NaCl 2 M)?
**A.** Its unfolding free energy is 2.2 kcal/mol.

**Q.** And the unfolding free energy (70 °C, Thermal)?
**A.** Its unfolding free energy is 1.08 kcal/mol.

**Q.** What about the Tm (Thermal) of the same protein?
**A.** Its Tm is 76.9 °C.

**Q.** And the “unfolding enthalpy (van 't Hoff)” value (Thermal)?
**A.** Its value is 58.6 kcal/mol.
